Test system: CAP7/CAP8/CAP9 construct
Assay: CAP assay variant with DNA linked by a long flexible linker
Assay type: binding, E. coli
Conditions: 75 nM CAP
Source text: The properties of the assay illustrated in FIG. 1 depend upon the total concentration of the nucleic acid components. By covalently linking the two DNA duplexes—i.e., the components of the assay—by a long flexible linker, the assay becomes independent of DNA concentration, within a range of detectability of fluorescence signal and within a range of concentration required for efficient protein binding. FIG. 11 illustrates the design this variant of the assay for CAP detection. The nucleic acid components of the assay were covalently linked during oligonucleotide synthesis by introducing 12 moieties of the Spacer 18 phosphoramidate (Glen Research, Sterling, Va.), the structure of which is shown in FIG. 11B. The addition of 12 units of Spacer 18 results in a distance of ˜270 Å between the linked oligonucleotides. […]
FIG. 12 illustrates the enhanced performance of the variation of the invention depicted in FIG. 11. […] The kinetics of CAP induced fluorescence quenching was also studied to determine the incubation time necessary for the completion of the assay (FIG. 12B). In this experiment, the fluorescence intensity of 50 nM of the CAP7/CAP8/CAP9 construct was monitored as a function of time at 520 nm with the excitation wavelength set at 490 nm. At the time indicated by the arrow in FIG. 12B, 75 nM CAP protein was added and the monitoring of the fluorescence signal was resumed. […]

B1: CAP: bacterial transcription activator from E. coli which binds DNA in a sequence specific, cAMP-dependent manner (protein, UniProt P0ACJ8 2-210, looked up)
DNA-binding transcriptional …: VLGKPQTDPTLEWFLSHCHIHKYPSKSTLIHQGEKAETLYYIVKGSVAVLIKDEEGKEMILSYLNQGDFIGELGLFEEGQERSAWVRAKTACEVAEISYKKFRQLIQVNPDILMRLSAQMARRLQVTSEKVGNLAFLDVTGRIAQTLLNLAKQPDAMTHPDGMQIKITRQEIGQIVGCSRETVGRILKMLEDQNLISAHGKTIVVYGTR
B1 was tested, and the “time for completion of the reaction” value was no more than 20 s and the “quenching of the fluorescence signal” value (50 nM construct, 200 μM cAMP) was roughly 70%.

Reference: patent US7172865B2, “Rapid and sensitive assay for the detection and quantification of coregulators of nucleic acid binding factors” (Saint Louis University, priority 2001, dated 2007)
